Assays:
Assay in all cases: cell-based or functional assay
[1] = biological target: HIV-1 92RW020 envelope glycoprotein (Env) on pseudovirus (HIV-1)
[2] = biological target: HIV-1 92TH021 envelope glycoprotein (Env) on pseudovirus (HIV-1)
[3] = biological target: HIV-1 92UG024 envelope glycoprotein (Env) on pseudovirus (HIV-1)
[4] = biological target: HIV-1 Env of isolate MGRM-AE-004 (HIV-1)
[5] = biological target: HIV-1 Env of isolate MGRM-AE-005 (HIV-1)
[6] = biological target: HIV-1 Env of isolate MGRM-AE-006 (HIV-1)
[7] = biological target: HIV-1 Env of isolate MGRM-AE-007 (HIV-1)
[8] = biological target: HIV-1 Env of isolate MGRM-AE-008 (HIV-1)
[9] = biological target: HIV-1 Env of isolate MGRM-AG-001 (HIV-1)
[10] = biological target: HIV-1 Env of isolate MGRM-AG-002 (HIV-1)
[11] = biological target: HIV-1 Env of isolate MGRM-AG-003 (HIV-1)
[12] = biological target: HIV-1 Env of isolate MGRM-AG-005 (HIV-1)
[13] = biological target: HIV-1 Env of isolate MGRM-AG-011 (HIV-1)
[14] = biological target: HIV-1 Env of isolate MGRM-AG-012 (HIV-1)
[15] = biological target: HIV-1 Env of isolate MGRM-AG-013 (HIV-1)
[16] = biological target: HIV-1 Env of isolate MGRM-Chronic-B-010 (HIV-1)
[17] = biological target: HIV-1 Env of isolate MGRM-Chronic-B-012 (HIV-1)
[18] = biological target: HIV-1 Env of isolate MGRM-Chronic-B-017 (HIV-1)
[19] = biological target: HIV-1 Env of isolate MGRM-Chronic-B-018 (HIV-1)
[20] = biological target: HIV-1 Env of isolate MGRM-Chronic-B-023 (HIV-1)
[21] = biological target: HIV-1 Env of isolate MGRM-Chronic-B-024 (HIV-1)
[22] = biological target: HIV-1 Env of isolate MGRM-D-011 (clade D) (HIV-1)
[23] = biological target: HIV-1 Env of isolate MGRM-G-001 (HIV-1)
[24] = biological target: HIV-1 Env of isolate MGRM-G-006 (HIV-1)
[25] = biological target: HIV-1 Env of isolate MGRM-G-009 (HIV-1)
[26] = biological target: HIV-1 Env of pseudovirus TRO.11 (Acute), clade B (HIV-1)
[27] = biological target: HIV-1 MGRM-A-010 envelope glycoprotein (Env) (HIV-1)
[28] = biological target: HIV-1 NL43 envelope glycoprotein (Env) on pseudovirus (HIV-1)
[29] = biological target: HIV-1 Env of isolate MGRM-AG-006 (HIV-1)
[30] = biological target: HIV-1 Env of isolate MGRM-AG-008 (HIV-1)
[31] = biological target: HIV-1 Env of isolate MGRM-AG-009 (HIV-1)
[32] = biological target: aMLV envelope (negative control pseudovirus)
[33] = biological target: HIV-1 93UG077 envelope protein (Env) on pseudovirus (HIV-1)
[34] = biological target: HIV-1 Env of isolate JRFL (HIV-1)
[35] = biological target: HIV-1 Env of isolate MGRM-Chronic-B-011 (HIV-1)
[36] = biological target: HIV-1 Env of isolate MGRM-Chronic-B-020 (HIV-1)
[37] = biological target: HIV-1 Env of isolate MGRM-G-004 (HIV-1)

Work on 1496_C09 (PG9) (TCN-109) (antibody) yielded an IC50 (ug/ml), neutralizing activity [1] of 0.161 µg/mL, an IC50 neutralization [1] of 0.161 µg/mL and an IC80, neutralization [1] of 1.04 µg/mL. The IC90 (pseudovirus neutralization) [1] was 6.55 µg/mL, the IC90, neutralization [1] was 3.4 µg/mL and the IC50 (ug/ml), neutralizing activity [2] was 0.103 µg/mL. The IC50 neutralization [2] was 0.103 µg/mL, the IC80, neutralization [2] was 0.448 µg/mL and the IC90 (pseudovirus neutralization) [2] was 1.99 µg/mL. The IC90, neutralization [2] was 1.07 µg/mL, the IC95, neutralization [2] was 2.43 µg/mL and the IC50 (ug/ml), neutralizing activity [3] was 1.91 µg/mL. It also gave an IC50 neutralization [3] of 1.91 µg/mL, an IC50 (µg/mL), pseudovirus neutralization [4] of 0.009 µg/mL and an IC50 (µg/ml), pseudovirus neutralization [4] of 0.01 µg/mL. The IC50 (µg/mL), pseudovirus neutralization [5] was 0.282 µg/mL, the IC50 (µg/ml), pseudovirus neutralization [5] was 0.16 µg/mL and the IC50 (µg/mL), pseudovirus neutralization [6] was 0.063 µg/mL. For the same substance, the IC50 (µg/ml), pseudovirus neutralization [6] was 0.05 µg/mL, the IC50 (µg/mL), pseudovirus neutralization [7] was 0.18 µg/mL and the IC50 (µg/mL), pseudovirus neutralization [8] was 31.5 µg/mL. The IC50 (µg/ml), pseudovirus neutralization [8] was 10.6 µg/mL, the IC50 (µg/mL), pseudovirus neutralization [9] was 17.1 µg/mL and the IC50 (µg/ml), pseudovirus neutralization [9] was 8.83 µg/mL. For the same substance, the IC50 (µg/mL), pseudovirus neutralization [10] was 0.076 µg/mL, the IC50 (µg/ml), pseudovirus neutralization [10] was 0.04 µg/mL and the IC50 (µg/ml), pseudovirus neutralization [11] was 9.71 µg/mL. The IC50 (µg/ml), pseudovirus neutralization [12] was 29.7 µg/mL, the IC50 (µg/mL), pseudovirus neutralization [13] was 0.007 µg/mL and the IC50 (µg/ml), pseudovirus neutralization [13] was 0.01 µg/mL. It also gave an IC50 (µg/mL), pseudovirus neutralization [14] of 22.8 µg/mL, an IC50 (µg/ml), pseudovirus neutralization [14] of 1.37 µg/mL and an IC50 (µg/mL), pseudovirus neutralization [15] of 0.259 µg/mL. For the same substance, the IC50 (µg/ml), pseudovirus neutralization [15] was 0.23 µg/mL, the IC50 (µg/ml), pseudovirus neutralization [16] was 0.004 µg/mL and the IC50 (µg/ml), pseudovirus neutralization [17] was 0.91 µg/mL. It also gave an IC50 (µg/ml), pseudovirus neutralization [18] of 0.32 µg/mL, an IC50 (µg/ml), pseudovirus neutralization [19] of 0.16 µg/mL and an IC50 (µg/ml), pseudovirus neutralization [20] of 0.04 µg/mL. For the same substance, the IC50 (µg/ml), pseudovirus neutralization [21] was 0.18 µg/mL, the IC50 (µg/ml), pseudovirus neutralization [22] was 0.06 µg/mL and the IC50 (µg/ml), pseudovirus neutralization [23] was 0.16 µg/mL. For the same substance, the IC50 (µg/ml), pseudovirus neutralization [24] was 0.51 µg/mL, the IC50 (µg/ml), pseudovirus neutralization [25] was 4.9 µg/mL and the IC50 (µg/ml), pseudovirus neutralization [26] was 5.43 µg/mL. For the same substance, the IC50 neutralization [27] was 0.0375 µg/mL, the IC50 (ug/ml), neutralizing activity [28] was 0.687 µg/mL and the IC50 neutralization [28] was 0.687 µg/mL.

In the case of PGT-142 (4995_E20) (antibody), the IC50 [7] is reported as 6.7 µg/mL, the IC50 [8] is reported as 0.08 µg/mL and the IC50 [9] is reported as 12.4 µg/mL. The IC50 [10] was 0.044 µg/mL, the IC50 [11] was > 50 µg/mL and the IC50 [12] was 0.383 µg/mL. For the same substance, the IC50 [29] was > 50 µg/mL, the IC50 [30] was 12.1 µg/mL and the IC50 [31] was > 50 µg/mL. For the same substance, the IC50 [13] was 0.081 µg/mL, the IC50 [14] was > 50 µg/mL and the IC50 [15] was 21.7 µg/mL. The neutralization IC50 [32] was > 50 µg/mL.

For PGV04 (antibody), the IC50 (µg/mL), pseudovirus neutralization [4] was 0.183 µg/mL, the IC50 (µg/mL), pseudovirus neutralization [5] was 0.051 µg/mL and the IC50 (µg/mL), pseudovirus neutralization [6] was > 50 µg/mL. For the same substance, the IC50 (µg/mL), pseudovirus neutralization [7] was 5.75 µg/mL, the IC50 (µg/mL), pseudovirus neutralization [8] was 1.51 µg/mL and the IC50 (µg/mL), pseudovirus neutralization [9] was 0.218 µg/mL. It also gave an IC50 (µg/mL), pseudovirus neutralization [10] of 0.879 µg/mL, an IC50 (µg/mL), pseudovirus neutralization [11] of 0.058 µg/mL and an IC50 (µg/mL), pseudovirus neutralization [12] of 0.027 µg/mL. The IC50 (µg/mL), pseudovirus neutralization [29] was 1.23 µg/mL, the IC50 (µg/mL), pseudovirus neutralization [30] was 2.48 µg/mL and the IC50 (µg/mL), pseudovirus neutralization [31] was 0.148 µg/mL. For the same substance, the IC50 (µg/mL), pseudovirus neutralization [13] was 0.071 µg/mL, the IC50 (µg/mL), pseudovirus neutralization [14] was 0.04 µg/mL and the IC50 (µg/mL), pseudovirus neutralization [15] was 0.03 µg/mL. For the same substance, the neutralization IC50 [32] was > 50 µg/mL.

PGT-121 (antibody) showed an IC50 neutralization [27] of 2.61 µg/mL.

In the case of 1495_C14 (PGC14) (antibody), the neutralization IC50 [33] is reported as > 50 µg/mL, the IC50 (µg/ml), pseudovirus neutralization [34] is reported as > 50 µg/mL and the IC50 (µg/ml), pseudovirus neutralization [4] is reported as > 50 µg/mL. The IC50 (µg/ml), pseudovirus neutralization [5] was > 50 µg/mL, the IC50 (µg/ml), pseudovirus neutralization [6] was > 50 µg/mL and the IC50 (µg/ml), pseudovirus neutralization [7] was > 50 µg/mL. For the same substance, the IC50 (µg/ml), pseudovirus neutralization [8] was > 50 µg/mL, the IC50 (µg/ml), pseudovirus neutralization [9] was > 50 µg/mL and the IC50 (µg/ml), pseudovirus neutralization [10] was > 50 µg/mL. For the same substance, the IC50 (µg/ml), pseudovirus neutralization [11] was > 50 µg/mL, the IC50 (µg/ml), pseudovirus neutralization [12] was > 50 µg/mL and the IC50 (µg/ml), pseudovirus neutralization [29] was > 50 µg/mL. For the same substance, the IC50 (µg/ml), pseudovirus neutralization [30] was 45 µg/mL, the IC50 (µg/ml), pseudovirus neutralization [31] was > 50 µg/mL and the IC50 (µg/ml), pseudovirus neutralization [13] was > 50 µg/mL. The IC50 (µg/ml), pseudovirus neutralization [14] was > 50 µg/mL, the IC50 (µg/ml), pseudovirus neutralization [15] was > 50 µg/mL and the IC50 (µg/ml), pseudovirus neutralization [16] was 27 µg/mL. For the same substance, the IC50 (µg/ml), pseudovirus neutralization [35] was > 50 µg/mL, the IC50 (µg/ml), pseudovirus neutralization [17] was > 50 µg/mL and the IC50 (µg/ml), pseudovirus neutralization [18] was > 50 µg/mL. For the same substance, the IC50 (µg/ml), pseudovirus neutralization [19] was > 50 µg/mL, the IC50 (µg/ml), pseudovirus neutralization [36] was > 50 µg/mL and the IC50 (µg/ml), pseudovirus neutralization [20] was > 50 µg/mL. For the same substance, the IC50 (µg/ml), pseudovirus neutralization [21] was > 50 µg/mL, the IC50 (µg/ml), pseudovirus neutralization [22] was > 50 µg/mL and the IC50 (µg/ml), pseudovirus neutralization [23] was > 50 µg/mL. For the same substance, the IC50 (µg/ml), pseudovirus neutralization [37] was > 50 µg/mL, the IC50 (µg/ml), pseudovirus neutralization [24] was > 50 µg/mL and the IC50 (µg/ml), pseudovirus neutralization [25] was > 50 µg/mL. The IC50 (µg/ml), pseudovirus neutralization [26] was > 50 µg/mL, the IC50 (µg/ml), pseudovirus neutralization [27] was > 50 µg/mL and the IC50 (µg/ml), pseudovirus neutralization [32] was > 50 µg/mL.

Reference: patent publication US20200024330A1
